The source of these data is the Human Domainome abundance scans (Beltran et al. 2025).

± gives the uncertainty stated by the source.

Sequences and labels used below:
B1: POU domain, class 5, transcription factor 1, residues 134 to 212; numbered along this chain, Q01860 (parent)
chain: EESQDIKALQKELEQFAKLLKQKRITLGYTQADVGLTLGVLFGKVFSQTTICRFEALQLSFKNMCKLRPLLQKWVEEAD

Variants of B1 are the subject of the series. The series is described as follows: abundance fitness (aPCA) (normalised: wild type 0, dead -1); higher = more abundant; growth selection in yeast, the domain comes from the species named. The following applies: Homo sapiens.
In the case of EESQDIKALQKELEQFAKLLKQKRITLGYTQADVGLTLGILFGKVFSQTTICRFEALQLSFKNMCKLRPLLQKWVEEAD [V40I], the abundance fitness worked out at 0.038 ± 0.27. Consider EESQDIKALQKELEQFAKLLKQKRITLGYTQADVGLTLGCLFGKVFSQTTICRFEALQLSFKNMCKLRPLLQKWVEEAD [V40C], for which the abundance fitness turned out to be 0.354 ± 0.23. Next, EESQDIKALQKELEQFAKLLKQKRITLGYTQADVGLTLGKLFGKVFSQTTICRFEALQLSFKNMCKLRPLLQKWVEEAD [V40K]: 0.198 ± 0.16.

EESQDIKALQKELEQFAKLLKQKRITLGYTQADVGLTLGDLFGKVFSQTTICRFEALQLSFKNMCKLRPLLQKWVEEAD [V40D]: the abundance fitness was -0.621 ± 0.44. With EESQDIKALQKELEQFAKLLKQKRITLGYTQADVGLTLGMLFGKVFSQTTICRFEALQLSFKNMCKLRPLLQKWVEEAD [V40M] the figure was -0.087 ± 0.13; with EESQDIKALQKELEQFAKLLKQKRITLGYTQADVGLTLGNLFGKVFSQTTICRFEALQLSFKNMCKLRPLLQKWVEEAD [V40N], 0.028 ± 0.28.

For the variant EESQDIKALQKELEQFAKLLKQKRITLGYTQADVGLTLGWLFGKVFSQTTICRFEALQLSFKNMCKLRPLLQKWVEEAD [V40W], the abundance fitness is -0.151 ± 0.14. With EESQDIKALQKELEQFAKLLKQKRITLGYTQADVGLTLGELFGKVFSQTTICRFEALQLSFKNMCKLRPLLQKWVEEAD [V40E], the abundance fitness stood at 0.1 ± 0.13. Next, EESQDIKALQKELEQFAKLLKQKRITLGYTQADVGLTLGSLFGKVFSQTTICRFEALQLSFKNMCKLRPLLQKWVEEAD [V40S]: -0.026 ± 0.14; EESQDIKALQKELEQFAKLLKQKRITLGYTQADVGLTLGHLFGKVFSQTTICRFEALQLSFKNMCKLRPLLQKWVEEAD [V40H]: 0.12 ± 0.28; EESQDIKALQKELEQFAKLLKQKRITLGYTQADVGLTLGYLFGKVFSQTTICRFEALQLSFKNMCKLRPLLQKWVEEAD [V40Y]: -0.237 ± 0.35. Next, EESQDIKALQKELEQFAKLLKQKRITLGYTQADVGLTLGGLFGKVFSQTTICRFEALQLSFKNMCKLRPLLQKWVEEAD [V40G]: -0.01 ± 0.076; EESQDIKALQKELEQFAKLLKQKRITLGYTQADVGLTLGLLFGKVFSQTTICRFEALQLSFKNMCKLRPLLQKWVEEAD [V40L]: -0.045 ± 0.13; EESQDIKALQKELEQFAKLLKQKRITLGYTQADVGLTLGVLMGKVFSQTTICRFEALQLSFKNMCKLRPLLQKWVEEAD [F42M]: -0.607 ± 0.15. Next, EESQDIKALQKELEQFAKLLKQKRITLGYTQADVGLTLGVLWGKVFSQTTICRFEALQLSFKNMCKLRPLLQKWVEEAD [F42W]: -0.165 ± 0.08; EESQDIKALQKELEQFAKLLKQKRITLGYTQADVGLTLGVLKGKVFSQTTICRFEALQLSFKNMCKLRPLLQKWVEEAD [F42K]: -0.262 ± 0.098. On to EESQDIKALQKELEQFAKLLKQKRITLGYTQADVGLTLGVLEGKVFSQTTICRFEALQLSFKNMCKLRPLLQKWVEEAD [F42E], for which the abundance fitness was -0.493 ± 0.096. EESQDIKALQKELEQFAKLLKQKRITLGYTQADVGLTLGVLYGKVFSQTTICRFEALQLSFKNMCKLRPLLQKWVEEAD [F42Y]: the abundance fitness was -0.028 ± 0.27. In the case of EESQDIKALQKELEQFAKLLKQKRITLGYTQADVGLTLGVLDGKVFSQTTICRFEALQLSFKNMCKLRPLLQKWVEEAD [F42D], the abundance fitness was -0.481 ± 0.31.

In the case of EESQDIKALQKELEQFAKLLKQKRITLGYTQADVGLTLGVLPGKVFSQTTICRFEALQLSFKNMCKLRPLLQKWVEEAD [F42P], the abundance fitness was -0.654 ± 0.15. Next, EESQDIKALQKELEQFAKLLKQKRITLGYTQADVGLTLGVLTGKVFSQTTICRFEALQLSFKNMCKLRPLLQKWVEEAD [F42T]: 0.166 ± 0.07. Regarding EESQDIKALQKELEQFAKLLKQKRITLGYTQADVGLTLGVLLGKVFSQTTICRFEALQLSFKNMCKLRPLLQKWVEEAD [F42L], the abundance fitness is -0.469 ± 0.081.

Regarding EESQDIKALQKELEQFAKLLKQKRITLGYTQADVGLTLGVLVGKVFSQTTICRFEALQLSFKNMCKLRPLLQKWVEEAD [F42V], the abundance fitness came to 0.127 ± 0.046. With EESQDIKALQKELEQFAKLLKQKRITLGYTQADVGLTLGVLNGKVFSQTTICRFEALQLSFKNMCKLRPLLQKWVEEAD [F42N] the figure was -0.191 ± 0.2; with EESQDIKALQKELEQFAKLLKQKRITLGYTQADVGLTLGVLGGKVFSQTTICRFEALQLSFKNMCKLRPLLQKWVEEAD [F42G], -0.091 ± 0.049. In the case of EESQDIKALQKELEQFAKLLKQKRITLGYTQADVGLTLGVLRGKVFSQTTICRFEALQLSFKNMCKLRPLLQKWVEEAD [F42R], the abundance fitness is -0.627 ± 0.076. As to EESQDIKALQKELEQFAKLLKQKRITLGYTQADVGLTLGVLSGKVFSQTTICRFEALQLSFKNMCKLRPLLQKWVEEAD [F42S], the abundance fitness was -0.055 ± 0.075. Next, EESQDIKALQKELEQFAKLLKQKRITLGYTQADVGLTLGVLCGKVFSQTTICRFEALQLSFKNMCKLRPLLQKWVEEAD [F42C]: 0.092 ± 0.15; EESQDIKALQKELEQFAKLLKQKRITLGYTQADVGLTLGVLIGKVFSQTTICRFEALQLSFKNMCKLRPLLQKWVEEAD [F42I]: -0.49 ± 0.19; EESQDIKALQKELEQFAKLLKQKRITLGYTQADVGLTLGVLAGKVFSQTTICRFEALQLSFKNMCKLRPLLQKWVEEAD [F42A]: -0.014 ± 0.054. With EESQDIKALQKELEQFAKLLKQKRITLGYTQADVGLTLGVLQGKVFSQTTICRFEALQLSFKNMCKLRPLLQKWVEEAD [F42Q] the figure was -0.875 ± 0.24; with EESQDIKALQKELEQFAKLLKQKRITLGYTQADVGLTLGVVFGKVFSQTTICRFEALQLSFKNMCKLRPLLQKWVEEAD [L41V], -0.329 ± 0.17. Next, EESQDIKALQKELEQFAKLLKQKRITLGYTQADVGLTLGVDFGKVFSQTTICRFEALQLSFKNMCKLRPLLQKWVEEAD [L41D]: -0.244 ± 0.46; EESQDIKALQKELEQFAKLLKQKRITLGYTQADVGLTLGVWFGKVFSQTTICRFEALQLSFKNMCKLRPLLQKWVEEAD [L41W]: 0.046 ± 0.14.
